Results published in the supplement of paper PMC10201428.
± gives the standard deviation of the averaged measurements.

test system: VchCAST RNA-guided transposition machinery (E. coli BL21(DE3) host, lacZ target); assay: relative integration efficiency (T-RL orientation) vs wild-type transposon end (log2 (normalized fold change)); transposon end mutated: right end (5 bp flank + 75 bp right end); higher = more efficient transposition
Outline: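 In E. coli BL21(DE3), a T7-driven effector plasmid was paired with a pUC57 mini-transposon donor containing 1549 left-end or 1849 right-end barcoded transposon variants. Cells grew on plates with 0.1 mM IPTG at 37°C for 18 h. Relative integration efficiency was derived from Illumina reads of genomic integration junctions against input plasmids, as a log-transformed output/input barcode fold change normalised to reference barcodes.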

Row | Sequence | relative integration efficiency (log2)
1 | ACATTTGTTGATACAACCATAAAATGATAATTACACCCATAAATTGATAATTATCACACCCATAAATTGATATTGCCTCTGATCATAGTCAACCATAAAATGATAATTACAGACCAAGCACCGACAC | -0.223 ± 0.2
2 | ACATTTGTTGATACAACCATAAAATGATAATTACACCCATAAATTGATAATTATCCACACCATAAATTGATATTGCCTCTGATCATAGTCAGACCAACATTGCTACGACCCGTATTCGCACCGACAC | -0.495 ± 0.13
3 | ACATTTGTTGATACAACCATAAAATCATAATTACACCCATAAATTGATAATTATCACACCCCATTTAACTATAACGCTCTGATCATAGTCAGACCAACATTGCTACGACCCGTATTCGCACCGACAC | -2.85 ± 0.24
4 | ACATTTGTCGATACAACCCTAAAATGATAATTACACCCATAAATTCATAATTATCACACCCAATTTAACTATAACGCTCTGATCATAGTCAGACCAACATTGCTACGACCCGTATTCGCACCGACAC | -4.55 ± 0.13
5 | ACATTTGTTGATACAACCATATATTGATATCTCCAACCATAAGTTGATATTTTTCACAACCATATATTGATATCTCCTCTGATCATAGTCAGACCAACATTGCTACGACCCGTATTCGCACCGACAC | -0.17 ± 0.037
6 | ACATTTGTTGATACAACCATAAAATGATAATTACACCCATTTTATGATAATTATCACACCCATAAATTGATATTGCCTCTGATCATAGTCAGACCAACATTGCTACGACCCGTATTCGCACCGACAC | 2.79 ± 0.74
7 | ACATTTGTTCATACAACCATAAAATGATAATTACACCCATAAATGGATCATTATCACCCCCAATTTAACTATAACGCTCTGATCATAGTCAGACCAACATTGCTACGACCCGTATTCGCACCGACAC | -1.84 ± 0.28
8 | ACATTTGTTGATACAACCCTAAAATGATAATTACACCCCTAAATTGATAATTATCACACCCCTAAATTGATATTGCCTCTGATCATAGTCAGACCAACATTGCTACGACCCGTATTCGCACCGACAC | -4.68 ± 0.11
9 | ACATTTGTGGATACAACCATAAAATGATAATTCACCCATAAATTGATAATTATCACACCCCAATTTAACTATAACGCTCTGATCATAGTCAGACCAACATTGCTACGACCCGTATTCGCACCGACAC | -1.92 ± 0.17
10 | ACATTTGTTGATACAACCATTAAATGATAATTACACCCAAAAATTGATAATTATCACACCCAATTTAACTATAACGCTCTGATCATAGTCAGACCAACATTGCTACGACCCGTATTCGCACCGACAC | -0.982 ± 0.24
11 | ACATTTGTTGATACAACCATAAAATCATCATTACCCCCATAAATTGATAATTATCACACCCCATTTAACTATAACGCTCTGATCATAGTCAGACCAACATTGCTACGACCCGTATTCGCACCGACAC | -3.71 ± 0.07
12 | ACATTTGTTGATACAACCATAAAATTATAATTACACCCATAAATTTATAATTATCACACCCATAAATTTATATTGCCTCTGATCATAGTCAGACCAACATTGCTACGACCCGTATTCGCACCGACAC | -1.23 ± 0.3
13 | ACATTTGTTGATACAACCATAAAATGATAATTACACCCATAAATTGATAATTCGCACACCCATAAATTGATATTGCCTCTGATCATAGTCAGACCAACATTGCTACGACCCGTATTCGCACCGACAC | -0.551 ± 0.065
14 | ACATTTGTTGATACCACCATAAAATGATAATTACCCCCATAAATTGATAATTATCACCCCCATAAATTGATATTGCCTCTGATCATAGTCAGACCAACATTGCTACGACCCGTATTCGCACCGACAC | 0.364 ± 0.15
15 | ACATTTCTGGATACAACCATAAAATGATAATTACACCCATAAATTGATCATTATCACACCCAATTTAACTATAACGCTCTGATCATAGTCAGACCAACATTGCTACGACCCGTATTCGCACCGACAC | -2.77 ± 0.4
16 | ACATTTGTTTATACAACCATAAAATGATAATTACACCCATAAATTCATTATTATCACACCCAATTTAACTATAACGCTCTGATCATAGTCAGACCAACATTGCTACGACCCGTATTCGCACCGACAC | -3.21 ± 0.16

Row | Sequence | relative integration efficiency (log2)
17 | ACATTTGTTGATACAACCATAAAATGATAATTACACCCATAAATTGATAATTATCACACCCATAAATTGATATTGCCTCTGATCATACAACCATAAAATGATAATTAGTCAGACCAAGCACCGACAC | 0.403 ± 0.3
18 | ACATTTGTGGATACAACCATAAAACGATAATTACACCCATAAATTGATAATTATCACACCCAATTTAACTATAACGCTCTGATCATAGTCAGACCAACATTGCTACGACCCGTATTCGCACCGACAC | -1.13 ± 0.22
19 | ACATTTGTTGATATGTTGATACAACCATAAAATGATAATTACACCCATAAATTGATAATTATCACACCCATAAATTGATATTGCCTCTGATCATAGTCAGACCAACATTGCTACGACCCGTATTCGC | -0.0755 ± 0.058
20 | ACATTTGTTGATACAACCATAAAATGATAATTACAACCATAAAGTGATATTTATCACACCCATAAATTGATATTGCCTCTGATCATAGTCAGACCAACATTGCTACGACCCGTATTCGCACCGACAC | -0.128 ± 0.23
21 | ACATTTGTTGATACAACCATATTATGATAATTACACCCATAAATTGATAATTATCACACCCATAAATTGATATTGCCTCTGATCATAGTCAGACCAACATTGCTACGACCCGTATTCGCACCGACAC | -0.2975 ± 0.0027
22 | ACATTTGTTGATACAACCATATATTGATATCTCCAACCATAAAGTGATATTTATCACACCCATAAATTGATAATTACTCTGATCATAGTCAGACCAACATTGCTACGACCCGTATTCGCACCGACAC | -0.578 ± 0.023
23 | ACATTTGTGGATACAACCATAAAATGATAATTACCACCCATACATTGATAATTATCACACCCATTTAACTATAACGCTCTGATCATAGTCAGACCAACATTGCTACGACCCGTATTCGCACCGACAC | -2.53 ± 0.19
24 | ACATTTGTTGATACAACCATAAAATGATAATTAATCACCCATAAATTGATAATTATCACACCCATAAATTGATATTGCCTCTGATCATAGTCAGACCAACATTGCTACGACCCGTATTCGCACCGAC | -1.92 ± 0.059
25 | ACATTTGTGGATACAACCATAAAATGATAATTACACCCATAAATTCATAATTATCACCCCCAATTTAACTATAACGCTCTGATCATAGTCAGACCAACATTGCTACGACCCGTATTCGCACCGACAC | -1.64 ± 0.37
26 | ACATTTGTTGATACAACCATAAAATGATAATTACACCCATAAATTGATAATTATCACACCCATACCGGTCGCGGTAAGAGGATCATAGTCAGACCAACATTGCTACGACCCGTATTCGCACCGACAC | -0.58 ± 0.031
27 | ACATTTGTTGATATAATTATCATTTTATGGTTGCAACCATAAAATGATAATTATGATAATTATCATTTTATGGTTGCTCTGATCATAGTCAGACCAACATTGCTACGACCCGTATTCGCACCGACAC | -2.97 ± 0.69
28 | ACATTGGTGGATACAACCATAAAATGATAATTACACCCATAAATGGATAATTATCACACCCAATTTAACTATAACGCTCTGATCATAGTCAGACCAACATTGCTACGACCCGTATTCGCACCGACAC | -7.53 ± 0.13
29 | ACATTTGTTGATACAACCATTAAATGATAATTCCACCCCTAAATTGATAATTATCACACCCAATTTAACTATAACGCTCTGATCATAGTCAGACCAACATTGCTACGACCCGTATTCGCACCGACAC | -2.75 ± 0.27
30 | ACATTTGTTGATACAACCATAAAATGATAATTACACCCATAAATTGATAATTAAGTGACCCATAAATTGATATTGCCTCTGATCATAGTCAGACCAACATTGCTACGACCCGTATTCGCACCGACAC | -0.484 ± 0.16
31 | ACATTTGTACTAACAACCATAAAATGATAATTACACCCATAAATTGATAATTATCACACCCATAAATTGATATTGCCTCTGATCATAGTCAGACCAACATTGCTACGACCCGTATTCGCACCGACAC | -1.43 ± 0.32
32 | ACATTTGTTGATACAACCATAAAATCATTATTACACCCATTAATTGATAATTATCACACCCAATTTAACTATAACGCTCTGATCATAGTCAGACCAACATTGCTACGACCCGTATTCGCACCGACAC | -3.73 ± 0.33
